The values below come from the DeepSol protein solubility set.

A short description of this data set: soluble on expression in E. coli; label from the status in PepcDB or PDB records.
For “MSSMTTTDNKAFLNELARLVGSSHLLTDPAKTARYRKGFRSGQGDALAVVFPGSLLELWRVLKACVTADKIILMQAANTGLTEGSTPNGNDYDRDVVIISTLRLDKLHVLGKGEQVLAYPGTTLYSLEKALKPLGREPHSVIGSSCIGASVIGGICNNSGGSLVQRGPAYTEMSLFARINEDGKLTLVNHLGIDLGETPEQILSKLDDDRIKDDDVRHDGRHAHDYDYVHRVRDIEADTPARYNADPDRLFESSGCAGKLAVFAVRLDTFEAEKNQQVFYIGTNQPEVLTEIRRHILANFENLPVAGEYMHRDIYDIAEKYGKDTFLMIDKLGTDKMPFFFNLKGRTDAMLEKVKFFRPHFTDRAMQKFGHLFPSHLPPRMKNWRDKYEHHLLLKMAGDGVGEAKSWLVDYFKQAEGDFFVCTPEEGSKAFLHRFAAAGAAIRYQAVHSDEVEDILALDIALRRNDTEWYEHLPPEIDSQLVHKLYYGHFMCYVFHQDYIVKKGVDVHALKEQMLELLQQRGAQYPAEHNVGHLYKAPETLQKFYRENDPTNSMNPGIGKTSKRKNWQEVE”, the “soluble on expression in E. coli” value is reported as “soluble”.

For the sequence “MSSNSPNSSNPAATDAPKKTSVEPGSEANNWHITEADEKGFKLTDMIKKLLKPVFSKAIMFDEKEIHVLLTRVFKYYTSPPNKKTAPSASASATTSMSPPKPAANALLELQAPINICGDTHGQYNDLLRIFNACGAATKTQYLFLGDYVDRGGHSLEVIMLLFSLKLAMPRKMHLLRGNHELKAINKNYGFHAELKKRFQREEVYESVYNHFNQVFSYMPLCAIVSKRILCMHGGISPHLKSLDDIRAIPLPLETAKTHPLACDLLWADPEKDAKGFEPNKIRAISNVFGKKEVDDLCKRLDIDLIVRAHQVVEYGYAFFADRRLITVFSASRYQIELCNYAAVVVVNKMLELSFVQLKPEDFEVRRDECEENAKDQTTSNVPH”, the “soluble on expression in E. coli” value is on record as “not soluble”.

Turning to “MSSNTTEHGEHFNESIVNEVILEDMKKNRIDHMKYLPGMETMEESDVMEQVITAMNAYDYDKYTEKDVRRALEHDNRTVEDFQALLSPAALPLLEEIAQAARVETRKHFGNSVYMFTPIYIANYCENYCIYCGFNCHNKIRRAQLNAEEIDKEMAAIAKTGLQEILILTGESRIKSDVKYIGEACKIARKYFKVIGLEVYPMNSDEYHYLHECGADYVTVFQETYNSDKYETLHLAGHKRIFPYRLNAQERALKGGMRGVGFAALLGLDDFRKDAFATGYHAWLLQRKYPHAEIAFSCPRLRPIINNDRINPMDVHEPQLLQVVCAYRLFMPFASITVSTRECERVRDNLVNIAATKISAGVSTGIGSHVEDIEDKGDDQFEISDGRSVDEVYQALLNHDLQPVMNDYVYL”, the “soluble on expression in E. coli” value is listed as “not soluble”.

Turning to “MSSPERDEGTPVPDSRGHCDADTVSGTPDRRPLLGEEKAVTGEGRAGIVGSPAPRDVEGLVPQIRVAAARQGESPPSVRGPAAAVFVTPKYVEKAQETRGAESQARDVKTEPGTVAAAAEKSEVATPGSEEVMEVEQKPAGEEMEMLEASGGVREAPEEAGPWHLGIDLRRNPLEAIQLELDTVNAQADRAFQHLEQKFGRMRRHYLERRNYIIQNIPGFWMTAFRNHPQLSAMIRGRDAEMLRYVTSLEVKELRHPKTGCKFKFFFRRNPYFRNKLIVKEYEVRSSGRVVSLSTPIIWRRGHEPQSFIRRNQDLICSFFTWFSDHSLPESDRIAEIIKEDLWPNPLQYYLCREGIRRPRRRPIREPVEIPRPFGFQSG”, the “soluble on expression in E. coli” value was “not soluble”.

On to “MSSRPPFGIVKPSKPTGNPSSGSSDLDSTAEPSPHERRMDSQRASSGSDVHGHPSLGSQSHNLTSAQSEGRNAHKDLHERHVHPSQGYQRHGSKAPAHGHPSSQGARRSQHELSNFPKLLANLMQDTKATASASCASNQDTLQPTASTMSDGEPEEDKVKLCGNRLEVGVTDNLAGTQRRKEQQQLQGAQAKNDIIYTLSTDNSILDIDHQPKREIAFTHSLLNISKIVNRMIPIRCSMFPGKSWKDPNNLKRPSIAKVHRTNHANELRTARFKANEKCYLLSVCQLISLKNPTFQGLSDSLNSPGDKKVAAEKHTCEDRTRRPTFPLDAFCSTPNEQYETMLLIAKSRTLSARMNVKMLHFPLGLLALEFDGIDSDMPNPDFHDNVLGYRDPHTTTPDSSSDHAAANLPPGRTRDYIPRKAKAPYINYVHSLSVMVEPLPSPPECCHLGSAEPVRPNFADIGAWSGSPTNPQSPSA”, for which the “soluble on expression in E. coli” value is “not soluble”.

As to “MSSRVPILKVDDYWVVAIEETLHDQSVIQFKEELLHNITGVAGKGLVIDISALEVVDSFVTRVLIEISRLAELLGLPFVLTGIKPAVAITLTEMGLDLRGMATALNLQKGLDKLKNLARMEQR”, the “soluble on expression in E. coli” value is on record as “soluble”.

With “MSSTIPALPGPEPGPGPGPAGPVSLTERRKAETRMEIARAAARLFVGQGLRATRAEDIARAAGVAPRTFYRYFATKEEAVAPLYALGAERWVRAVREAPAELSPPEALERAVRHTLTPGAGVSAPSWEWARTLIRLAESSPALRKVWAEVCHSTERGLVQALAARMSGGDDNVAVRLAASPRLHFAAAVAGASVRVAAEHWASSSPQGARSPLEQALLNLEVLRGFAWEAGPAEEG”, the “soluble on expression in E. coli” value is on record as “not soluble”.

For the sequence “MSSTLPVINLMGPTASGKTALACELYERGHFELISVDSALIYKDMDIGTAKPTKEELALYPHHLIDIITPLEVYSAAQFVEDATQLIDQIHMKGKTPILVGGTMLYFKSLLEGLSTNLPSADAEVRAAIEKQAEQEGWQSVYDELARVDPVAGARFKVSDRQRIIRAIEVYRLTGQPITKLQAEQPKNVPYRYTFHNYALLPDRIELHKRIEQRLFKMWSIGFLNEVESLIKKYDLNDNLPSMRSVGYRQALDFLLKSDMSHNNRREMEDKALFATRQLAKRQYTWLRSLQETHYFKTYLTIKQAQEDLRNSYGLEHHHHHH”, the “soluble on expression in E. coli” value is on record as “soluble”.

Turning to “MSSVGAGFRLARAGWVLVREGVIAALPGEELSGLPKFGWQLARLFTRRRALAYQRSDRLAKAVVRLGPSYVKLGQFLATRPDVVGNDMALDLAMLQDKMHTFPKAEAVAAIEASLGRKVRDLYAEFGLEHHHHHH”, the “soluble on expression in E. coli” value was “not soluble”.

For the sequence “MSSVVNAAYAEYNGKEKGDQEDPRVLIPQLCRLFYELGWVTGTGGGISLRHGEHIYIAPSGVQKERIQPEDLFVCDIDEKDISCPPPQKKLKKSQCTPPFMNAYTMRGAQAVIHTHSKSAVMATLLFPGKEFRITHQEMIKGIRKGNSGTNFRYDDTLVVPIIENTPEEKDLKERMARAMDMYPDSCAVLVRRHGVYVWGETWEKAKTMCECYDYLFDIAVQMKQSGLDPSAFPTEEKGIV”, the “soluble on expression in E. coli” value was “not soluble”.

“MSSYKNILVAIDGSYESELAFEKGVSVALRNDANLLLTHVVDTRALQSVATFDAYIYEKLEQEAHSVLDDYENQARERGLEKVRQIIEFGNPKPLLATEIPEREHVDLIMLGATGLNAFERLLIGSSSEYILRHAKVDLLVVRDPEKTL”: the “soluble on expression in E. coli” value is on record as “not soluble”.

For “MSTAYEVQCRGLPWEATEQELRDFFGNNGIESLEIPRRNGRTSGDAKVVFTNEEDYNNALKKDREHLGSRYIEVFPAGGAPTRRGDRGERGDRGDRDHYRSRGAPPRDRYSDRGGPRSSGPDSIVRLRGLPFSVTSRDISDFLAPLPIVRDGILLPDQQRARPGGEAYVCFETMESVQIAKQRHMKNIGHRYIEVFEATHRDLSRFAEENDLRVPRFGPPPFASAPQTAPRGAYDPYSQPTDPYRNATDYRRAAEPEDPYARSRAPSVQDYGVRASYDPYTQPAAPVSSYPSQQQPSAGYYDNYAPKTAYESYGRERGPDPRDVRDPRDSRMPDPRDSRALSDPYAAESRYSEYGYESREPYWRGGSGGPPSIGGGVGGGGAPLAPTGRDPYSVGESWANGAGGPGGPPPVSSDRDRYGSGGYASEPYAQREAGGAMRRSEYGRPDDRYSKPEPYGYSRDRDYGAPQNQHFVLRMRGVPFRASEADVYDFFHPIRPNQVELLRDHQFQRPSGDARVIFYNRKDYDDALMKDKQYMGERYIEMIPDNGRY”, the “soluble on expression in E. coli” value was “not soluble”.

Consider “MSTEKEKMIAGELYRSADETLSRDRLRARQLIHRYNHSLAEEHTLRQQILADLFGQVTEAYIEPTFRCDYGYNIFLGNNFFANFDCVMLDVCPIRIGDNCMLAPGVHIYTATHPIDPVARNSGAELGKPVTIGNNVWIGGRAVINPGVTIGDNVVVASGAVVTKDVPDNVVVGGNPARIIKKL”, for which the “soluble on expression in E. coli” value is listed as “not soluble”.

Consider “MSTELIAAVEAADSAEGLVRAVAALSAARTDAAIPTLISVLAFNNPGAAVVAVDGLIQLGSPAAQAILNNLDDYNYGARAWALRALAGIGEPAALPLLLSAAREDFSLSVRRAATYGLGRVRWADLSESDRLAQQQQCYETLKLCLQYDPEWVVRYAAAAALETLAPAATQLQSAIAETLNRQAHSDEERAVQARSRLAERRLAGGVLEHHHHHH”, for which the “soluble on expression in E. coli” value was “soluble”.

In the case of “MSTGATIVIDLGKTLSKVSLWDLDGRMLDRQVRPSIPLEIDGIRRLDAPDTGRWLLDVLSRYADHPVTTIVPVGHGAGIAALTDGRLAFPPLDYEQSIPEAVMADYRSQRDPFARTGSPALPDGLNIGSQLWWLDQLHPDVMANATLLPWAQYWAWFLTGRAVSEVTSLGCHSDLWDPQDGDFSPMAKRLGWAARFAPIVRAGDTVGALLPAIAERTGLSPDVQVLAGLHDSNAALLAARLEHHHHHH”, the “soluble on expression in E. coli” value is given as “not soluble”.

“MSTGITYDEDRKTQLIAQYESVREVVNAEAKNVHVNENASKILLLVVSKLKPASDIQILYDHGVREFGENYVQELIEKAKLLPDDIKWHFIGGLQTNKCKDLAKVPNLYSVETIDSLKKAKKLNESRAKFQPDCNPILCNVQINTSHEDQKSGLNNEAEIFEVIDFFLSEECKYIKLNGLMTIGSWNVSHEDSKENRDFATLVEWKKKIDAKFGTSLKLSMGMSADFREAIRQGTAEVRIGTDIFGARPPKNEARII”: the “soluble on expression in E. coli” value is given as “soluble”.

Consider “MSTIELNKRQEHILQIVKENGPITGEHIAEKLNLTRATLRPDLAILTMSGFLEARPRVGYFYTGKTGTQLLADKLKKLQVKDFQSIPVVIHENVSVYDAICTMFLEDVGTLFVVDRDAVLVGVLSRKDLLRASIGQQELTSVPVHIIMTRMPNITVCRREDYVMDIAKHLIEKQIDALPVIKDTDKGFEVIGRVTKTNMTKILVSLSENEILAAAAAALEHHHHHH”, for which the “soluble on expression in E. coli” value is “soluble”.

For “MSTLADQALHNNNVGPIIRAGDLVEPVIETAEIDNPGKEITVEDRRAYVRIAAEGELILTRKTLEEQLGRPFNMQELEINLASFAGQIQADEDQIRFYFDKTM”, the “soluble on expression in E. coli” value is recorded as “soluble”.

For “MSTLLAILFLLPFYTFSLNKKPEEVLKGLYPSAEIEVEDIILTEEQVKEVEKLSGTKLNTRFVTFYIVKKDGKVLAYGYVDIHRVRTKPEAVLYVISPKGKIELIEVLAFHEPLEYLPPKNWLKLFEGKDINAPLRVKKDIPNVTGATLTARAITKNAKKVLALWQVLFGGKE”, the “soluble on expression in E. coli” value is given as “not soluble”.

As to “MSTLPPCPQCNSEYTYEDGALLVCPECAHEWSPNEAATASDDGKVIKDSVGNVLQDGDTITVIKDLKVKGSSLVVKVGTKVKNIRLVDGDHDIDCKIDGIGAMKLKSEFVRKV”, the “soluble on expression in E. coli” value is on record as “not soluble”.

For “MSTPHTPKPGPRPGAVPGPRPGAHAARKVVAPNVSAMNQARAFGRVDDDGTVYLIRGGETKKIGSWQAGTPEEGLQHYIHRFEDLATEVALLESRLKSHPNDASHIKEKAGEIRDGLDDAAIIGDLDSLEKRLNSIIDGADSAGEKARELKQQLQEKAIEQKQKLVAEAEEIAEKSTDWKVAGDRIREILDEWKTIKGIDRKTDDELWKLYSRARDSFNRRRGSHFAELDRGRAAARRIKEDLVEKANILKESTDWNDTAHAFKELMNEWKAAGRAPRDVDDKLWAAFKGAQDYFFNARNAVNDQRDREFAANAEAKDALIDEYTPLIDPAQGLESAREKLRELQEKWEAIGYVPRNRVREYEEKIANLEKRVTEAADAQWRRTDPAAQARAAQFISKVEEFTAQAAEAEVKGNTKKAEQLRAQAQQWQEWADAAINAVENR”, the “soluble on expression in E. coli” value is given as “not soluble”.
